From article PMC10988774 (Journal of molecular biology, 2023)

Target: T1, p65 La module, LaMod(108–355) (Tetrahymena thermophila, UniProt W7X6T2 108-355)
T1 sequence (looked up): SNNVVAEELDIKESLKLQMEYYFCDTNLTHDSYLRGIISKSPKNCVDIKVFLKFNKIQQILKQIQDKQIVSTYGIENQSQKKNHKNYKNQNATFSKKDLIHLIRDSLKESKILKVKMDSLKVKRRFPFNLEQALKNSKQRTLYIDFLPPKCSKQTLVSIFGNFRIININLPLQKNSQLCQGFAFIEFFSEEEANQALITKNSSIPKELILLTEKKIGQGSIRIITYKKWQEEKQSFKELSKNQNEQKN
Test: NMR titration

B1: p65 N-terminal domain, NTD (residues 1–109) (domain or fragment, Tetrahymena thermophila, UniProt W7X6T2 1-109, looked up)
chain: MDEYLENTNLEELEQECFMEDYQHEDVVEQENHQVDANDIYENQQMNDESQLNQDVKISQQKEQAVEMIEEQQQNNQDKFKQFQDCMAHITELNFKRNYQNLTEQSSSN
binding result: binds
